According to article PMC3997499, “Resolving Hot Spots in the C-Terminal Dimerization Domain that Determine the Stability of the Molecular Chaperone Hsp90” (PLoS ONE, 2014):
Values joined by “and” are separate entries in the source; they are usually repeats but may differ in a detail not shown here. Equal values may be shown once.

B1: C-terminal domain (CTD) of human heat shock protein of 90 kDa (hHsp90), wild type (domain or fragment)
chain: not shown
notes: human Hsp90 alpha isoform (UniProt P07900), C-terminal domain, residues 563-732; synthetic codon-optimized DNA; Vector pTEV21-a; also called CTD wt; wt
B2: hHsp90 CTD hot spot mutant II CTD^I688A/Y689A/I692A (domain or fragment)
chain: not shown
notes: human Hsp90 alpha isoform (UniProt P07900), C-terminal domain, residues 563-732, with I688A, Y689A and I692A; Same construct as m1 (pTEV21-a), made by site-directed mutagenesis
B3: hHsp90 CTD cold spot mutant CTD^S658A/Q682A (domain or fragment)
chain: not shown
notes: human Hsp90 alpha isoform (UniProt P07900), C-terminal domain, residues 563-732, with S658A and Q682A; Same construct as m1 (pTEV21-a), made by site-directed mutagenesis; also called S658A/Q682A cold spot mutant
B4: hHsp90 CTD hot spot mutant I CTD^Y689A/I692A/L696A (domain or fragment)
chain: not shown
notes: human Hsp90 alpha isoform (UniProt P07900), C-terminal domain, residues 563-732, with Y689A, I692A and L696A; Same construct as m1 (pTEV21-a), made by site-directed mutagenesis

Legend:
[1] = biological target: the molecule itself; test: SEC-MALS; Bio SEC-5 150 Å column, HPLC buffer without glycerol (10 mM MES, 200 mM KCl, 1 mM EDTA, pH 6), samples 2.4 mg/ml; dimer to monomers
[2] = biological target: the molecule itself; test: SEC; Superdex SD200 10/300, 4°C, HPLC buffer (10 mM MES/KOH, 200 mM KCl, 1 mM EDTA, 1% glycerol) pH 6, 110 µL purified CTD, triplicates; apparent stoichiometry from calibration with globular protein standards
[3] = biological target: the molecule itself; test: SEC-MALS; Bio SEC-5 150 Å column, HPLC buffer without glycerol (10 mM MES, 200 mM KCl, 1 mM EDTA, pH 6), samples 2.4 mg/ml; dimer to monomers; remark: listed apart in the source

Protein | fraction of species 1 (monomer mass) [1] | fraction of species 2 (dimer mass) [1] | stoichiometry N [2] | stoichiometry N [3] | binding result [2]
B1 | 0 | 1 | 4 and 8 | 2 | –
B2 | 0.69 | 0.31 | 4 | 2 | –
B3 | – | – | – | – | binds
B4 | 0.77 | 0.23 | 4 | 2 | –
